Laboratory results taken from the supplement of paper PMC10567573.

B1: MLH1 (parent)
chain: YAHQMVRTDSREQKLDAFLQPLSK

Variants of: B1
Test: protein stability index of a GFP-peptide fusion (GPS, HEK-293T) (PSI 1-6); higher = more stable
Conditions: c terminus: a fixed tail appended
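Also: lentivirally expressed fusions sorted by FACS into six bins by GFP to DsRed ratio, PSI derived from sequencing read proportions per bin multiplied by bin number.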

Variant	protein stability index
YAHQMVRTDSREQKLDFFLQPLSK	1.88
YAHQMVRTDSREQKLDIFLQPLSK	2.69
YAHQMVRTDSREQKLDKFLQPLSK	3.29
YAHQMVRTDSREQKLDLFLQPLSK	1.85
YAHQMVRTDSREQKLDMFLQPLSK	2.45
YAHQMVRTDSREQKLDNFLQPLSK	3.19
YAHQMVRTDSREQKLDPFLQPLSK	2.66
YAHQMVRTDSREQKLDQFLQPLSK	2.06
YAHQMVRTDSREQKLDRFLQPLSK	2.66
YAHQMVRTDSREQKLDSFLQPLSK	2.57
YAHQMVRTDSREQKLDVFLQPLSK	3.02
YAHQMVRTDSREQKLDWFLQPLSK	2.19
YAHQMVRTDSREQKLDACLQPLSK	3.22
YAHQMVRTDSREQKLDADLQPLSK	3.79
YAHQMVRTDSREQKLDAELQPLSK	3.12
YAHQMVRTDSREQKLDAGLQPLSK	2.79
YAHQMVRTDSREQKLDAHLQPLSK	3.29
YAHQMVRTDSREQKLDALLQPLSK	2.4
YAHQMVRTDSREQKLDANLQPLSK	3.15
YAHQMVRTDSREQKLDAQLQPLSK	3.55
YAHQMVRTDSREQKLDARLQPLSK	3.17
YAHQMVRTDSREQKLDASLQPLSK	3.52
YAHQMVRTDSREQKLDATLQPLSK	3.36
YAHQMVRTDSREQKLDAVLQPLSK	3.15

Variant	protein stability index
YAHQMVRTDSREQKLDAWLQPLSK	1.85
YAHQMVRTDSREQKLDAYLQPLSK	2.27
YAHQMVRTDSREQKLDAFDQPLSK	3.02
YAHQMVRTDSREQKLDAFEQPLSK	3.38
YAHQMVRTDSREQKLDAFGQPLSK	2.12
YAHQMVRTDSREQKLDAFHQPLSK	3.12
YAHQMVRTDSREQKLDAFIQPLSK	2.21
YAHQMVRTDSREQKLDAFKQPLSK	3.16
YAHQMVRTDSREQKLDAFNQPLSK	2.85
YAHQMVRTDSREQKLDAFPQPLSK	2.55
YAHQMVRTDSREQKLDAFQQPLSK	3.02
YAHQMVRTDSREQKLDAFRQPLSK	3.33
YAHQMVRTDSREQKLDAFTQPLSK	3.02
YAHQMVRTDSREQKLDAFVQPLSK	2.84
YAHQMVRTDSREQKLDAFWQPLSK	2.42
YAHQMVRTDSREQKLDAFLAPLSK	2.49
YAHQMVRTDSREQKLDAFLCPLSK	1.98
YAHQMVRTDSREQKLDAFLDPLSK	3.39
YAHQMVRTDSREQKLDAFLEPLSK	2.51
YAHQMVRTDSREQKLDAFLFPLSK	1.91
YAHQMVRTDSREQKLDAFLHPLSK	2.78
YAHQMVRTDSREQKLDAFLIPLSK	2.07
YAHQMVRTDSREQKLDAFLLPLSK	2.53
YAHQMVRTDSREQKLDAFLMPLSK	2.45

Variant	protein stability index
YAHQMVRTDSREQKLDAFLRPLSK	2.5
YAHQMVRTDSREQKLDAFLVPLSK	2.09
YAHQMVRTDSREQKLDAFLWPLSK	2.99
YAHQMVRTDSREQKLDAFLYPLSK	1.88
YAHQMVRTDSREQKLDAFLQCLSK	2.2
YAHQMVRTDSREQKLDAFLQDLSK	2.84
YAHQMVRTDSREQKLDAFLQHLSK	2.57
YAHQMVRTDSREQKLDAFLQILSK	2.57
YAHQMVRTDSREQKLDAFLQKLSK	2.42
YAHQMVRTDSREQKLDAFLQLLSK	2.16
YAHQMVRTDSREQKLDAFLQMLSK	1.9
YAHQMVRTDSREQKLDAFLQNLSK	2.4
YAHQMVRTDSREQKLDAFLQQLSK	2.7
YAHQMVRTDSREQKLDAFLQSLSK	3
YAHQMVRTDSREQKLDAFLQTLSK	2.21
YAHQMVRTDSREQKLDAFLQVLSK	2.48
YAHQMVRTDSREQKLDAFLQWLSK	2.4
YAHQMVRTDSREQKLDAFLQYLSK	1.71
YAHQMVRTDSREQKLDAFLQPASK	2.59
YAHQMVRTDSREQKLDAFLQPCSK	2.59
YAHQMVRTDSREQKLDAFLQPDSK	3.38
YAHQMVRTDSREQKLDAFLQPESK	3.02
YAHQMVRTDSREQKLDAFLQPFSK	2.07
YAHQMVRTDSREQKLDAFLQPGSK	3.03

Variant	protein stability index
YAHQMVRTDSREQKLDAFLQPHSK	2.45
YAHQMVRTDSREQKLDAFLQPISK	3.13
YAHQMVRTDSREQKLDAFLQPKSK	2.98
YAHQMVRTDSREQKLDAFLQPMSK	2.43
YAHQMVRTDSREQKLDAFLQPNSK	3.11
YAHQMVRTDSREQKLDAFLQPPSK	2.06
YAHQMVRTDSREQKLDAFLQPRSK	3.02
YAHQMVRTDSREQKLDAFLQPSSK	3.14
YAHQMVRTDSREQKLDAFLQPTSK	3.2
YAHQMVRTDSREQKLDAFLQPYSK	2.03
YAHQMVRTDSREQKLDAFLQPLAK	1.99
YAHQMVRTDSREQKLDAFLQPLDK	3.41
YAHQMVRTDSREQKLDAFLQPLEK	2.86
YAHQMVRTDSREQKLDAFLQPLFK	2.4
YAHQMVRTDSREQKLDAFLQPLGK	3.24
YAHQMVRTDSREQKLDAFLQPLHK	2.01
YAHQMVRTDSREQKLDAFLQPLNK	2.42
YAHQMVRTDSREQKLDAFLQPLPK	2.18
YAHQMVRTDSREQKLDAFLQPLQK	2.7
YAHQMVRTDSREQKLDAFLQPLRK	2.45
YAHQMVRTDSREQKLDAFLQPLTK	2.43
YAHQMVRTDSREQKLDAFLQPLWK	2.27
